A word on the Kd: it is the constant that tells how readily two partners part at equilibrium. High values mean lower affinity, low ones higher affinity.

Drawing on patent US20130071379A1, this text covers Kd for 19 molecules.

This test has as its target PCSK9. Briefly: Biacore SPR.

B1: 1B20 variant A5 (antibody, part only; not given: light chain, probably the common parent VL, V domains shown, part only)
VH: QVQLVQSGAEVKKPGESLKISCKGSGYSFTDYYISWVRQMPGKGLEWMGWIYPGDSYTHYNPMFQGQVTISADKSISTAYLQWSSLKASDTAMYYCARDRWSRPYFDIWGQGTLVTVSS
Molecule B1 had a Kd of 6.81 nM.

B2: 1B20 variant E8 (antibody, part only; not given: light chain, probably the common parent VL, V domains shown, part only)
VH: QVQLVQSGAEVKKPGESLKISCKGSGYSFTNYYITWVRQMPGKGLEWMGMIYPGDSYTRYSPKFQGQVTISADKSISTAYLQWSSLKASDTAMYYCARDHWSKPLSDVWGQGTLVTVSS
B2: the Kd worked out at 1.62 nM.

B3: 1B20 variant A3 (antibody, part only; not given: light chain, V domains shown, part only)
VH: QVQLVQSGAEVKKPGESLKISCKGSGYSFTDYYISWVRQMPGKGLEWMGMIYPGDSYTRYSPNFQGQVTISADKSISTAYLQWSSLKASDTAMYYCARDHWYRPLSDIWGQGTLVTVSS
Molecule B3 displayed a Kd of 7.93 nM.

B4: 1B20 variant G7 (antibody, part only; not given: light chain, probably the common parent VL, V domains shown, part only)
VH: QVQLVQSGAEVKKPGESLKISCKGSGYSFTDYYISWVRQMPGKGLEWMGWIYPGDSYTHYSPSFQGQVTISADKSISTAYLQWSSLKASDTAMYYCARDHWSKPYFDVWGQGTLVTVSS
The molecule B4 displayed a Kd of 2.05 nM.

B5: 1B20 variant C7 (antibody, part only; not given: light chain, probably the common parent VL, V domains shown, part only)
VH: QVQLVQSGAEVKKPGESLKISCKGSGYSFTDYYISWVRQMPGKGLEWMGWIYPGDSYTHYSHNFQGQVTISADKSISTAYLQWSSLKASDTAMYYCARDHWSRPFSDVWGQGTLVTVSS
Consider B5, for which the Kd is 2.53 nM.

B6: 1B20 variant C6 (antibody, part only; not given: light chain, V domains shown, part only)
VH: QVQLVQSGAEVKKPGESLKISCKGSGYSFTNYYITWVRQMPGKGLEWMGMIYPGDSYTHYNPSFQGQVTISADKSISTAYLQWSSLKASDTAMYYCARDHWYKPLFDIWGQGTLVTVSS
On to B6, for which the dissociation constant Kd stood at 2.1 nM.

B7: 1B20 variant A9 (antibody, part only; not given: light chain, probably the common parent VL, V domains shown, part only)
VH: QVQLVQSGAEVKKPGESLKISCKGSGYSFTNYYISWVRQMPGKGLEWMGMIYPGDSYTRYSPKFQGQVTISADKSISTAYLQWSSLKASDTAMYYCARDHWYRPYSDIWGQGTLVTVSS
As for B7, the Kd amounted to 1.95 nM.

B8: 1B20 variant E3 (antibody, part only; not given: light chain, V domains shown, part only)
VH: QVQLVQSGAEVKKPGESLKISCKGSGYSFTDYYISWVRQMPGKGLEWMGMIYPGDSYTSYSPRFQGQVTISADKSISTAYLQWSSLKASDTAMYYCARDYWYRPFSDIWGQGTLVTVSS
In turn, B8 showed a Kd of 2.62 nM.

B9: 1B20 variant F5 (antibody, part only; not given: light chain, probably the common parent VL, V domains shown, part only)
VH: QVQLVQSGAEVKKPGESLKISCKGSGYSFTDYYITWVRQMPGKGLEWMGMIYPGDSYTNYRHNFQGQVTISADKSISTAYLQWSSLKASDTAMYYCARDYWSRPYFDIWGQGTLVTVSS
In turn, B9 returned a dissociation constant (Kd) of 2.41 nM.

B10: 1B20 variant D8 (antibody, part only; not given: light chain, V domains shown, part only)
VH: QVQLVQSGAEVKKPGESLKISCKGSGYSFTDYYISWVRQMPGKGLEWMGMIYPGDSYTHYSQSFQGQVTISADKSISTAYLQWSSLKASDTAMYYCARDHWYRPLFDIWGQGTLVTVSS
As to B10, the dissociation constant Kd turned out to be 3.21 nM.

B11: 1B20 variant G6 (antibody, part only; not given: light chain, probably the common parent VL, V domains shown, part only)
VH: QVQLVQSGAEVKKPGESLKISCKGSGYSFTDYYINWVRQMPGKGLEWMGMIYPGDSYTNYNPKFQGQVTISADKSISTAYLQWSSLKASDTAIYYCARDHWSRPFSDVWGQGTLVTVSS
In turn, B11 displayed a Kd of 2.2 nM.

B12: 1B20 variant C8 (antibody, part only; not given: light chain, V domains shown, part only)
VH: QVQLVQSGAEVKKPGESLKISCKGSGYSFTNYYIAWVRQMPGKGLEWMGMIYPGDSYTSYSHRFQGQVTISADKSISTAYLQWSSLKASDTAMYYCARDHWYRPYFDIWGQGTLVTVSS
Molecule B12 came in with a Kd of 3.73 nM.

B13: 1B20 variant H7 (antibody, part only; not given: light chain, probably the common parent VL, V domains shown, part only)
VH: QVQLVQSGAEVKKPGESLKISCKGSGYSFTDYYISWVRQMPGKGPEWMGMIYPGDSYTRYSQKFQGQVTISADKSISTAYLQWSSLKASDTAIYYCARDHWSRPLSDIWGQGTLVTVSS
B13 showed a dissociation constant (Kd) of 4.9 nM.

B14: 1B20 variant B8 (antibody, part only; not given: light chain, V domains shown, part only)
VH: QVQLVQSGAEVKKPGESLKISCKGSGYSFTNYYISWVRQMPGKGLEWMGMIYPGDSYTHYSPNFQGQVTISADKSISTAYLQWSSLKASDTAMYYCARDYWSKPYFDVWGQGTLVTVSS
With B14, the Kd worked out at 4.47 nM.

B15: 1B20 variant E4 (antibody, part only; not given: light chain, probably the common parent VL, V domains shown, part only)
VH: QVQLVQSGAEVKKPGESLKISCKGSGYSFTNYYISWVRQMPGKGLEWMGWIYPGDSYTSYNQKFQGQVTISADKSISTAYLQWSSLKASDTAMYYCARDYWSKPYSDVWGQGTLVTVSS
In turn, B15 registered a Kd of 2.38 nM.

B16: 1B20 variant H3 (antibody, part only; not given: light chain, probably the common parent VL, V domains shown, part only)
VH: QVQLVQSGAEVKKPGESLKISCKGSGYSFTNYYITWVRQMPGKGLEWMGMIYPGDSYTHYSQRFQGQVTISADKSISTAYLQWSSLKASDTAIYYCARDHWSRPLFDVWGQGTLVTVSS
Molecule B16 showed a Kd of 1.89 nM.

B17: 1B20 variant D3 (antibody, part only; not given: light chain, V domains shown, part only)
VH: QVQLVQSGAEVKKPGESLKISCKGSGYSFTDYYITWVRQMPGKGLEWMGMIYPGDSYTRYSPKFQGQVTISADKSISTAYLQWSSLKASDTAMYYCARDYWSKPFFDVWGQGTLVTVSS
Turning to B17, the Kd turned out to be 2.68 nM.

B18: 1B20 variant E5 (antibody, part only; not given: light chain, probably the common parent VL, V domains shown, part only)
VH: QVQLVQSGAEVKKPGESLKISCKGSGYSFTDYYISWVRQMPGKGLEWMGWIYPGDSYTHYNPNFQGQVTISADKSISTAYLQWSSLKASDTAMYYCARDRWSTPYFDVWGQGTLVTVSS
With B18, the Kd is 4.22 nM.

B19: 1B20 variant C1 (antibody, part only; not given: light chain, probably the common parent VL, V domains shown, part only)
VH: QVQLVQSGAEVKKPGESLKISCKGSGYSFTNYYISWVRQMPGKGLEWMGMIYPGDSYTRYSPKFQGQVTISADKSISTAYLQWSSLKASDTAMYYCARDHWYRPYSDIWGQGTLVTVSS
On to B19, for which the equilibrium dissociation constant (Kd) was determined as 1.65 nM.
